# Measured values taken from the DeepSol protein solubility set.
# Experiment: soluble on expression in E. coli; label from the status in PepcDB or PDB records
row,Sequence,soluble on expression in E. coli
1,MIITQGPQFQGKASKRLHVMAKPIGAVCNIDCSYCYYLSKEDLLEYKKGCSPQMDDETLETYIRQYIEGQNTPEIIFSWQGGEPTLLGLDYFKKIVEFQKKYQPEGILISNDLQTNGTLLTDKWCEFLAENNFLVGLSIDGPEMLHNAYRTNKAGRGTFKQVMNAVELLHKHNVKFATLTCVNNLTSRNPLEVYRFLRDVVKSPQMQFIPIVEQKTFRTVAPQTEQIAAQLRQGDKRLIPGNKESIMEPWCVSDEAWGNFLIAVFDEWTQHDLGKVFVQYFEASVETWMGRKNPLCTLGEICGKGLAMEHNGDVFACDHYVYPEYKIGNIHNEELDTLAFSRKQQEFGFAKSKTLTTQCQKCEYKFACHGECPKNRFIKTRDGEPGLNYLCAGWKKFFAHADKSIAYILKMLGNPVQHGKYSDAKMQQVHQNAFPTKF,not soluble
2,MIKSLKQLAIQAGLEYLGEDVSIQTVAINSNEVRQDCLFVAIVANRDGHEFIPSAIANGAKAILVSKKQGLDIPQVVCGNTIKGLRALAKEYRKSLTMPIISLTGSCGKTSVKEMIVTLLGERKVHFTQGNLNNYLGVPMTILETPHDVDFAVIEAGTNVGGEIKAAADIIQPNIAMITNVGACHLENLKTLDGVMIEKGELLKALPRDGFCIVNLDDERIPNYAKLLECKKISCSMTNPKADILVLDYRATSNSYAFKIRIFSQEYDYQLPNIGKHNLFNSVLAIASVVAVGLEPKDFLQNTQNIKNYKGRFSTEKLSDKLTLIDDTYNASAGAVQAAIEDLAEFDGKKILAISSMRELGDEAENYHRKMGQWLKKANLDKIFLFGEKNLIDYVLAEYSNQNAKYYESKDELNNDLAKILDEYKSQSTKLTVKGARSFKMEEVVKFVKENL,not soluble
3,MILKKDDRMYTKKPTIPENVIERAYKGKCTKEDALLLLEGNPFELFELANDLRAIAAGDTVSYVVNRNIYITNKCVGNCGFCAYRTEKGYILSIEEILKKAGDARKAGAVEVCVQGGYTPEADMEFYLEVIESLKAEYPDLCLHALSPMEVNYAAETSGMSVEEALRRLKKSGLDSLTGTSAEILSDRVRKIICPSKISTQQWIDTVTAAHKAGISTNATIMYGHVETLKERLDHVFTIREIQKETGGFTELIPMSFLPYNNPVGEKMLASGKFSSTGLEDLQLIAISRVILHTYVKNIQATWVKLGKKLAQVALQCGANDLGGTLMEDQISTASGGSHGEYVSPAEFEWMIKGAGRVPVQR,not soluble
4,MILQEAKIRAKELEIGAKSKYENETSKVIKEYESYLIKLEKQEAKNQQRLERETQQLEEERRRINHKQASLSGMIEELEKLKGDYRSKLTESLEILSRVAGLTQEEAKELALAKATEESRAQIAQIVRKYESEAKEEGRKRANYILAQATTRFAGEFAAERLINVVNLPNDELKGRIIGKEGRNIKTLEMLSGVDVIIDDTPGAIVLSSFNLYRRAIATRTIEALVEDGRIQPARIEEVYKKVEQEFEEKVLEEGEGIVLDMELGYVHPELKKLIGRLKYRASYGQNALGHSLEVANLAGVIAGELGGDVKLAKRAGLLHDIGKALTHDFGGSHVDLGAEVCSRYKEHPVVINAIFAHHGHEEAKSIESAAVCAADALSAARPGARREVLESFLKRVQEIEKIAMEKLGVRQAYAINAGREVRVIVNADLINDEESVLLAQEIAKEIETKVQYPGEIKVSVIREVRAVEFAK,not soluble
5,MILTTTHEIEGRRIERYLGIVFGEAIVGANVLRDLLAQIRDIVGGRSGAYEAELRRARETALAEMAEAARRLGADAVVGVDLDYEVLGSGNSMLMVTASGTAVKLAP,soluble
6,MILVTGFEPFGSLEHNPSQALLDLLPSEVDGKPLRKAVLPVDAEALGEALEDLHREGPKAVLHLGLAEDRPVLTLERLAVNLLDFPRPDNRGRVLEDLPIVPGGPLALPARFPVKPVLARWREAGIPGRPSLSAGSYLCNQAFYLSLYRLPEEVPVGFLHLPPDETLALKRPRPYVPLEVQARAVRLALEHL,soluble
7,MIMHIPKSTYYHKWFIGATLVVPVLPLAAQTSPNLVFIMADQYRGDALGCLGKEPVKTPCLDHLASEGVLFTNAVSSYPVSSPARAMLMTGMYPLHNKVTGNCNSQTAPYGVELPQEARCWSDVLKDMNYRTGYIGKWHLDSPYKPYVDTYNNRGKVAWNEWCPPERRHGFEYWTAYGTYDYHLKPMYWDTTAPRDSFYYVNQWGPAYEADKAIEYIQTQKENKQPFALVVSMNPPHTGYELVPDKYKALYKDIDVEALCAHRPDIPAKGTEMGNYFRNNIRNYYACITGVDEQVGRIIETLKSNGLFENTIIVFTSDHGICMGAHNNAGKDIFYEEAMRIPMIISWPAKIKPRKDDHLMIAFADLYPSLLSLMGFRKEIPETVQTFDLSRHILGKSKKEVVQPYYYVQFDNHATGYRGLRTSTHTFAVHATNGKIDETVLFDRTKDPYQMDNIAGQSPRLVRQFNKQLKAWLLHTNDSFAHYLETVTK,not soluble
8,MIMIFTSSCCDNLSIDEIIERAEKGDCEAQYIVGFYYNRDSAIDSPDDEKAFYWLKLAAEQGHCEAQYSLGQKYTEDKSRHKDNEQAIFWLKKAALQGHTFASNALGWTLDRGEAPNYKEAVVWYQIAAESGMSYAQNNLGWMYRNGNGVAKDYALAFFWYKQAALQGHSDAQNNLADLYEDGKGVAQNKTLAAFWYLKSAQQGNRHAQFQIAWDYNAGEGVDQDYKQAMYWYLKAAAQGSVGAYVNIGYMYKHGQGVEKDYQAAFEWFTKAAECNDATAWYNLAIMYHYGEGRPVDLRQALDLYRKVQSSGTRDVSQEIRETEDLLLEHHHHHH,not soluble
9,MINETKYMRQQITNLIQIIDTIKYNTLMTDWNIQTHIYKFNQIVTNELNKFKGFETSYIINENQVSYYEIITLLNKRPLRQVDYGNKIQYLNFYHTELSNALFAIKFAHLEHHHHHH,not soluble
10,MINHLSAIDDIADAEQIRVLFYASNRMVHAPLNKVLDLIKNDTQRDLLSALTQYQEATEQRIETLQKNLDALRLQVSLSTHNLKK,not soluble
11,MINIVIPMAGAGSRFAQAGYKKPKPFIDVLGRPMICHVLDNLNMPDARFILLTRKEHFENEQETVNWIKSKYNVEFVLIDNLTEGAACTVLHAHKLIDNNTPLLIANSDQIVDMNIAEFINDSENRNLDGSVLCFKDHDTKWSYAKIDGEGLITEIREKVVISEFATVGIYYFAKGGFFVKNAIDMIIRNERVKNEFYVAPVYNFGIQEGLKFGIFNININQMHGIGTPTDLNVYIDLVQRNKLEHHHHHH,soluble
12,MINLELGKDFLDRFTKVCEFLRVEPSLDVVVFECESLEEFHEITGMPYHTGGVYHEGVIYTQPLDVLRRKNSLEATILHELLHHVLEMYFDLPRWMEEGVVLAVLGVKPEEVFGYHRDCLLRFMEKVRYEEIPDLVDRYRRSSVERRLEHHHHHH,soluble
13,MINMKALVGGIILPVSSPPIKNGVLLFDEESGKIVAVGKKEEVTIPEDAEIIEAPGKYISPGFVDAHSHIGMIPDGLEWEFQEANDFYSPIAPHLRAVDGFDPYDEAFKEAIAGGVTTVATGPGSANVMGGIGLLAKTYEEGFEKIIKPEAFIKMALGPKRPREYKSKYPYPTTRMGTVALMRTWFKRAREFMEGKIKTDNIDEEEIEMLRLLARALKREIQVKIHLSTSPDEIYAAIRIIKEFNLNATIDHAFGSQLVADMLSREGIPVIYGPPMITRIASFFRYVDDKAPVLLFKKGVNVSIMTDHPVLPEKHLRLLAAVVARNGLSLDDALKLITINPAKALGIDRFVGSLEPGKDADIVISSDHPIKPTSKIEIVFGRGREVYKAD,soluble
14,MIQSDLDLFGPQPQRLASHTVLLPGFALAETEALLDALRPVLRAAPFRHMYTPGGLRMAVALTNCGTLGWVSDQHGYRYSPSDPVSGQPWPALPPVLLALASRAAAMAGFDGFVPDACLVNHYLPGTRLSLHQDRDEQDFGQPIVSVSLGLPAVFLFGGLQRADKAQRIALSHGDVLVWGGVDRLRFHGVLPIKPGVHPRLGERRINLTLRKAGALEHHHHHH,not soluble
15,MIQSGKIYIRGRTVVFMIIRNEQDLEGLRKIGRIVALAREEMKKEAKPGMTTKELDLIGKKVLDEHGAISAPEKEYDFPGVTCISVNEEVAHGIPGDRVLKEGDLVNVDVSAALDGYYADTGISFVLGEDEAKEKLCQAAVDAFWAAMKKVKAGSKQNQIGRAVSNFAHKNGYNVIQNLTGHGIGLSLHEAPNHILSYFDPMDNALLKDGLVIAVEPFISMKADHIIERGDDGWTFVTPDKSLVAQCEHTVVVTRGEPIILTEI,soluble
16,MIQTKDIIELTDTYGANNYHPLPIVISKAEGVWVEDPEGNRYMDLLSAYSAVNQGHRHPKIINALIDQANRVTLTSRAFHSDQLGPWYEKVAKLTNKEMVLPMNTGAEAVETAIKTARRWAYDVKKVEANRAEIIVCEDNFHGRTMGAVSMSSNEEYKRGFGPMLPGIIVIPYGDLEALKAAITPNTAAFILEPIQGEAGINIPPAGFLKEALEVCKKENVLFVADEIQTGLGRTGKVFACDWDNVTPDMYILGKALGGGVFPISCAAANRDILGVFEPGSHGSTFGGNPLACAVSIAALEVLEEEKLTERSLQLGEKLVGQLKEIDNPMITEVRGKGLFIGIELNEPARPYCEQLKAAGLLCKETHENVIRIAPPLVISEEDLEWAFQKIKAVLS,not soluble
17,MIRAVHSAAIVLLVFSYMAEFSGAASGGYAPASVGTQPVGTSFRDRLADGSPGPVMVVIPPGRFRMGAIFGGGDPDEKPVHEVSIPRAFAIGAYEVTFAEYDRFCEATGREKPKDGRRWFGPLSRNWGRGNKPAMNVSWDDAVAYVKWLSDQTGHRYRLPSEAEWEYAARGGKDTPYWWGGTVGQNKANCKGCGSRWDKKITAPVGSFAPNPYGMFDTAGNVWEWCVDTWHESYDGAPADGSPWIGGEDSRRVQRGGSFGSKPRYIRSSARGRGAQDGRYVYLGFRVVRELLEHHHHHH,not soluble
18,MIRFEHVSKAYLGGRQALQGVTFHMRPGEMAFLTGHSGAGKSTLLKLICGIERPSAGKIFFSGHDITRLKNREVPFLRRQIGMIFQDHHLLMDRTVYDNVAIPLIIAGASGDDIRRRVSAALDKVGLLDKARNFPIQLSGGEQQRVGIARAVVNKPAVLLADEPTGNLDDALSEGILRLFEEFNRVGVTVLMATHDIGLISRRSYRQLVLSDGHLHGGLANE,not soluble
19,MIRHFKHKGLQLFFETGDKSGIRPDHASRLARQLRQLNDAVNPREMNIPGWKLHPLSGDLSGYWSVMVNGNWRMIFVFDGEDVILVDYRDDH,not soluble
20,MIRKDLQKLEQEGLLKRTYGGAILERQTIHDDNIRPRLMKNLGEKDIIAKLALKEIKDGDFIFLDASTTNYSIASMLLNTKKQVTVVTNMNRIAILFDSHPSIDVICIGGIYNKNLGGTIGSKAIEDVKSYRFHKAFVGVGGINLVEDFISNFNLEEASMKNAIIKSSLKTYLVAENEKFYTDGICEFAKCEDIDFIISDKKPNEEILKLLKERNISIIYLEHHHHHH,soluble
21,MIRLVAFDLDGTIGDTIPLCLAAFREATTPYVDHELSDDEIARTFGLNEEGMINQVVYGDSREKALNDFYVIYEEMHAILCPKPFEGMKTLIGQLHERNVIVVLITGKGIRSCDITLKQFGMDGCFDRIETGSSEKNRKSEAMKDILLYYGFKSNEMIYVGDAVSDIEACYFVKIQCLSAAWAASTDCEQLEKYNSGYVFSSVRLLRDFL,not soluble
22,MIRQTLWSDVAAPLQNAFQTNNSGNRPVLMMLGGYTFSLASLVYQELARVNEYRWAAIERYGQRDARQYTGPGDESIELPGIAYPDWQGQRASLDELRALAAQGKPLQLIDSNGLIHGWYVIERIEERQSDHHPNGTPRRIEFTLALQRVNDDHAVEATP,not soluble
23,MIRTLELAPHIEGGYFRQTKKASDTINLAGKGRALYTSIYFLLEETNPSHFHRLTADEIWYFHAGSPLTVHMITADGHYEAVTLGLDISKGQQLHYCVPKGTIWGSTVDKDDALVSCLVAPGFEFEDFELFERVDLLATYPEHKEMIERLTRYLEHHHHHH,not soluble
